Laboratory results reported in article doi:10.1101/2022.09.23.509211 (bioRxiv, 2022).

Target: Rabbit skeletal muscle actin (actin filaments, F-actin) (rabbit, UniProt P68135 1-377)
Test: co-sedimentation

B1: Mouse metallothionein-3 (MT-3), recombinant, cleaved WT MT-3 (natural protein)
chain: not shown
  Kd: > 20 µM
